According to paper PMC9458457, “Processing oxidatively damaged bases at DNA strand breaks by APE1”:

Target: dAPE1 C138A E96Q/D210N (crystallization) (human, UniProt P27695 44-318, E96Q;C138A;D210N;del1-43)
Test: X-ray crystallography; 5 mM CaCl2 in reservoir; Anisotropy: 50 mM HEPES pH 7.4, 100 mM KCl, 5% glycerol, 20 mM EDTA, 37 C, 10 nM DNA. Crystals: 7-14% PEG 20K, 100 mM sodium citrate pH 5.0, 15% glycerol, 5 mM
Settings: protein: recombinant; tags: untagged; nicked duplex, blunt ends; 8-oxoG opposite C (strand 1 position 12)

Sequence of dAPE1 C138A E96Q/D210N (crystallization) (P27695 44-318 E96Q/C138A/D210N): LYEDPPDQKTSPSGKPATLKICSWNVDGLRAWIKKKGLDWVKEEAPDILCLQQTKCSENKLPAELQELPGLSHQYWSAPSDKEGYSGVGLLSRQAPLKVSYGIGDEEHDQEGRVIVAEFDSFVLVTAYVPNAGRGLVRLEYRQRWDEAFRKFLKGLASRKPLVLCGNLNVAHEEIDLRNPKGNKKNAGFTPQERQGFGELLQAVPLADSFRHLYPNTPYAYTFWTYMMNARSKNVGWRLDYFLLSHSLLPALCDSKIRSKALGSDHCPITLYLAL

B1: 21-mer nicked 3'-8-oxoG opposite C (crystal) (mixed)
DNA 1: GGATCCGTCGACCGCATCAGC
DNA 2: GCTGATGCGG
DNA 3: TCGACGGATCC
modifications: 8-oxoG at 3' end of strand 2 (position 10, written G); 5'-phosphate on strand 3
B1: binds.
